Kd data for four substances are collected here from publication PMC5736413.

In experiment [1] the target is recombinant mouse C3d (C1010A) (mouse) (UniProt P01027). The experiment is described as follows: SPR. (Surface plasmon resonance follows binding to a sensor surface in real time, without labels.)
Experiment [2] concerns the target FH19–20 19–20 (Homo sapiens) (UniProt P08603). Nature of the experiment: SPR. The conditions noted are these: cited from earlier work.

Sequence of recombinant mouse C3d (C1010A) (mouse) (P01027 1002-1303 C1010A): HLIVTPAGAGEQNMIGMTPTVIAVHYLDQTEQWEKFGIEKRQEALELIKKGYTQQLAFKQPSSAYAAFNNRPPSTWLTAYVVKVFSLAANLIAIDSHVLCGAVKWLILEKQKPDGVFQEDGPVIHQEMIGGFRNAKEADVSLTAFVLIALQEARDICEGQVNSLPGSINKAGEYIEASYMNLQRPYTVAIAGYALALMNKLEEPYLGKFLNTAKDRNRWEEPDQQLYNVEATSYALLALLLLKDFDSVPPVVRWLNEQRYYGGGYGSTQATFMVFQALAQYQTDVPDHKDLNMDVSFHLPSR
Sequence of C3d C3d (P01024 1002-1303): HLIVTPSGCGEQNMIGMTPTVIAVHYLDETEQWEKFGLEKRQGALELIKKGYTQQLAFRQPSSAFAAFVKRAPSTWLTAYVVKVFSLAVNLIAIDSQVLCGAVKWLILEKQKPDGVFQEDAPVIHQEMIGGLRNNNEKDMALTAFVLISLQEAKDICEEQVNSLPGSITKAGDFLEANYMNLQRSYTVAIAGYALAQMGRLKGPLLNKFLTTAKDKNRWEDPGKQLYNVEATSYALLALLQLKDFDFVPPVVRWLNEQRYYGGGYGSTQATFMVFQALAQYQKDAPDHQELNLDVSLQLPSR
Sequence of FH19–20 19–20 (Homo sapiens) (P08603 1104-1231): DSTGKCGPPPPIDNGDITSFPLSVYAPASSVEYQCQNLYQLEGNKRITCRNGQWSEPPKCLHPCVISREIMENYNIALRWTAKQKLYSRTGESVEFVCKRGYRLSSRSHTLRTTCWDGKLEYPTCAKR

Consider “recombinant mouse Factor H-related protein C (natural protein)”, for which the Kd in experiment [1] was found to be 1040 nM.

Turning to “recombinant mouse Factor H-related protein B (natural protein)”, the Kd in experiment [1] was determined as 546 nM.

On to C3d C3d (from UniProt P01024), for which the Kd in experiment [2] was 180 nM.

Take “recombinant mouse Factor H-related protein A (prototype, class A clone 3A4/5G4) (natural protein)”: the Kd in experiment [1] worked out at 136 nM.

A word on the Kd: it is the concentration at which binding is half-saturated.
